Reference: the Human Domainome abundance scans (Beltran et al. 2025)
± gives the uncertainty stated by the source.

B1: Cyclin-F, residues 28 to 80; numbered along this chain, P41002 (parent)
chain: RNLTILSLPEDVLFHILKWLSVEDILAVRAVHSQLKDLVDNHASVWACASFQE

Variants of: B1
Experiment: abundance fitness (aPCA) (normalised: wild type 0, dead -1); higher = more abundant; growth selection in yeast, the domain comes from the species named
Settings: Homo sapiens

| Variant | abundance fitness |
| --- | --- |
| RNLTILSSPEDVLFHILKWLSVEDILAVRAVHSQLKDLVDNHASVWACASFQE | -0.635 ± 0.33 |
| RNLTILSTPEDVLFHILKWLSVEDILAVRAVHSQLKDLVDNHASVWACASFQE | -0.651 ± 0.35 |
| RNLTILSVPEDVLFHILKWLSVEDILAVRAVHSQLKDLVDNHASVWACASFQE | -0.915 ± 0.26 |
| RNLTILSLAEDVLFHILKWLSVEDILAVRAVHSQLKDLVDNHASVWACASFQE | -0.778 ± 0.11 |
| RNLTILSLCEDVLFHILKWLSVEDILAVRAVHSQLKDLVDNHASVWACASFQE | -0.676 ± 0.15 |
| RNLTILSLDEDVLFHILKWLSVEDILAVRAVHSQLKDLVDNHASVWACASFQE | -0.541 ± 0.16 |
| RNLTILSLEEDVLFHILKWLSVEDILAVRAVHSQLKDLVDNHASVWACASFQE | -0.646 ± 0.12 |
| RNLTILSLFEDVLFHILKWLSVEDILAVRAVHSQLKDLVDNHASVWACASFQE | -0.621 ± 0.15 |
| RNLTILSLGEDVLFHILKWLSVEDILAVRAVHSQLKDLVDNHASVWACASFQE | -0.413 ± 0.081 |
| RNLTILSLHEDVLFHILKWLSVEDILAVRAVHSQLKDLVDNHASVWACASFQE | -0.949 ± 0.19 |
| RNLTILSLIEDVLFHILKWLSVEDILAVRAVHSQLKDLVDNHASVWACASFQE | -0.847 ± 0.28 |
| RNLTILSLKEDVLFHILKWLSVEDILAVRAVHSQLKDLVDNHASVWACASFQE | -0.818 ± 0.15 |
| RNLTILSLMEDVLFHILKWLSVEDILAVRAVHSQLKDLVDNHASVWACASFQE | -1.04 ± 0.21 |
| RNLTILSLNEDVLFHILKWLSVEDILAVRAVHSQLKDLVDNHASVWACASFQE | -0.882 ± 0.33 |
| RNLTILSLQEDVLFHILKWLSVEDILAVRAVHSQLKDLVDNHASVWACASFQE | -0.735 ± 0.14 |
| RNLTILSLREDVLFHILKWLSVEDILAVRAVHSQLKDLVDNHASVWACASFQE | -0.692 ± 0.088 |
| RNLTILSLSEDVLFHILKWLSVEDILAVRAVHSQLKDLVDNHASVWACASFQE | -0.672 ± 0.11 |
| RNLTILSLTEDVLFHILKWLSVEDILAVRAVHSQLKDLVDNHASVWACASFQE | -0.69 ± 0.14 |
| RNLTILSLVEDVLFHILKWLSVEDILAVRAVHSQLKDLVDNHASVWACASFQE | -0.59 ± 0.11 |
| RNLTILSLYEDVLFHILKWLSVEDILAVRAVHSQLKDLVDNHASVWACASFQE | -0.932 ± 0.18 |
| RNLTILSLPADVLFHILKWLSVEDILAVRAVHSQLKDLVDNHASVWACASFQE | -0.208 ± 0.12 |
| RNLTILSLPCDVLFHILKWLSVEDILAVRAVHSQLKDLVDNHASVWACASFQE | -0.585 ± 0.15 |
| RNLTILSLPDDVLFHILKWLSVEDILAVRAVHSQLKDLVDNHASVWACASFQE | -0.225 ± 0.12 |
| RNLTILSLPFDVLFHILKWLSVEDILAVRAVHSQLKDLVDNHASVWACASFQE | -0.449 ± 0.14 |
| RNLTILSLPGDVLFHILKWLSVEDILAVRAVHSQLKDLVDNHASVWACASFQE | -0.566 ± 0.096 |

| Variant | abundance fitness |
| --- | --- |
| RNLTILSLPHDVLFHILKWLSVEDILAVRAVHSQLKDLVDNHASVWACASFQE | -0.166 ± 0.1 |
| RNLTILSLPIDVLFHILKWLSVEDILAVRAVHSQLKDLVDNHASVWACASFQE | -0.576 ± 0.16 |
| RNLTILSLPKDVLFHILKWLSVEDILAVRAVHSQLKDLVDNHASVWACASFQE | 0.24 ± 0.14 |
| RNLTILSLPLDVLFHILKWLSVEDILAVRAVHSQLKDLVDNHASVWACASFQE | -0.646 ± 0.098 |
| RNLTILSLPMDVLFHILKWLSVEDILAVRAVHSQLKDLVDNHASVWACASFQE | -0.558 ± 0.15 |
| RNLTILSLPNDVLFHILKWLSVEDILAVRAVHSQLKDLVDNHASVWACASFQE | -0.589 ± 0.19 |
| RNLTILSLPPDVLFHILKWLSVEDILAVRAVHSQLKDLVDNHASVWACASFQE | -0.357 ± 0.11 |
| RNLTILSLPRDVLFHILKWLSVEDILAVRAVHSQLKDLVDNHASVWACASFQE | -0.054 ± 0.072 |
| RNLTILSLPSDVLFHILKWLSVEDILAVRAVHSQLKDLVDNHASVWACASFQE | -0.233 ± 0.082 |
| RNLTILSLPTDVLFHILKWLSVEDILAVRAVHSQLKDLVDNHASVWACASFQE | -0.35 ± 0.12 |
| RNLTILSLPVDVLFHILKWLSVEDILAVRAVHSQLKDLVDNHASVWACASFQE | -0.524 ± 0.11 |
| RNLTILSLPWDVLFHILKWLSVEDILAVRAVHSQLKDLVDNHASVWACASFQE | -0.737 ± 0.12 |
| RNLTILSLPYDVLFHILKWLSVEDILAVRAVHSQLKDLVDNHASVWACASFQE | -0.505 ± 0.14 |
| RNLTILSLPEAVLFHILKWLSVEDILAVRAVHSQLKDLVDNHASVWACASFQE | 0.028 ± 0.1 |
| RNLTILSLPECVLFHILKWLSVEDILAVRAVHSQLKDLVDNHASVWACASFQE | -0.18 ± 0.12 |
| RNLTILSLPEEVLFHILKWLSVEDILAVRAVHSQLKDLVDNHASVWACASFQE | -0.153 ± 0.14 |
| RNLTILSLPEFVLFHILKWLSVEDILAVRAVHSQLKDLVDNHASVWACASFQE | -0.823 ± 0.22 |
| RNLTILSLPEGVLFHILKWLSVEDILAVRAVHSQLKDLVDNHASVWACASFQE | -0.104 ± 0.082 |
| RNLTILSLPEHVLFHILKWLSVEDILAVRAVHSQLKDLVDNHASVWACASFQE | -0.384 ± 0.15 |
| RNLTILSLPEIVLFHILKWLSVEDILAVRAVHSQLKDLVDNHASVWACASFQE | -0.43 ± 0.25 |
| RNLTILSLPEKVLFHILKWLSVEDILAVRAVHSQLKDLVDNHASVWACASFQE | 0.269 ± 0.14 |
| RNLTILSLPEMVLFHILKWLSVEDILAVRAVHSQLKDLVDNHASVWACASFQE | -0.488 ± 0.16 |
| RNLTILSLPENVLFHILKWLSVEDILAVRAVHSQLKDLVDNHASVWACASFQE | 0.046 ± 0.091 |
| RNLTILSLPEPVLFHILKWLSVEDILAVRAVHSQLKDLVDNHASVWACASFQE | -0.132 ± 0.16 |
